Assay results reported in patent publication US20260139048A1 (NANJING LEGEND BIOTECH, published 2026).
Where a chain is given by its changes, count along the chain named. Each block holds one binder with its values, some of them ahead of it.

Tests used:
[1] = molecular target: T1, TIGIT on TIGIT-over expressing NFAT-Luc/Jurkat effector cells (GenScript reporter cell line) (UniProt Q495A1 22-244, limits assumed); test: cell-based or functional assay
T1 sequence (looked up): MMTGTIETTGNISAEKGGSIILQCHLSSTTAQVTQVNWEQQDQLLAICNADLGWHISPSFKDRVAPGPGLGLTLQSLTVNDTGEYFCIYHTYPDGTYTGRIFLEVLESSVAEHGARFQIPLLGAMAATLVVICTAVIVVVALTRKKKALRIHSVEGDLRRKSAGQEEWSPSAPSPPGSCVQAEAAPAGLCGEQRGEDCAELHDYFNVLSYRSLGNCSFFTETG

[2] = molecular target: T2, human TIGIT expressed on CHO-K1 cells (human, UniProt Q495A1 22-244); test: flow cytometry on CHO-K1 cells expressing human TIGIT
T2 construct: whole, on cells; also called human TIGIT-CHO-K1 cells; human TIGIT over-expressing cell line
T2 sequence (looked up): T1 sequence (looked up)

[3] = molecular target: T3, His-tagged human TIGIT (human, UniProt Q495A1 22-141); test: SPR experiment 2, IgG from HEK293 supernatant captured
T3 construct: SPR analyte; also called human TIGIT protein; not shown: His tag
T3 sequence: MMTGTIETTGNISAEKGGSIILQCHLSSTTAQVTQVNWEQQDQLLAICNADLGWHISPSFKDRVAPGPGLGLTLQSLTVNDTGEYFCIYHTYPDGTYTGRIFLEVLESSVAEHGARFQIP

[4] = molecular target: T4, cynomolgus TIGIT expressed on CHO-K1 cells (cynomolgus, UniProt A0A7N9I9V4 89-312); test: flow cytometry on CHO-K1 cells expressing cynomolgus TIGIT
T4 construct: whole, on cells; also called cynomolgus TIGIT over-expressing cell line

[5] = molecular target: T3, His-tagged human TIGIT; test: SPR (Biacore T200), antibody captured, His-tagged TIGIT analyte
[6] = molecular target: T5, His-tagged cynomolgus TIGIT (cynomolgus, UniProt A0A7N9I9V4 89-209); test: as above
T5 construct: SPR analyte; also called cynomolgus TIGIT protein; not shown: His tag

[7] = molecular target: T2, human TIGIT expressed on CHO-K1 cells; test: flow cytometry competition: biotinylated CD155-Fc on human TIGIT-CHO-K1 cells
[8] = molecular target: T3, His-tagged human TIGIT; test: SPR experiment 1, IgG from HEK293 supernatant captured
[9] = molecular target: T3, His-tagged human TIGIT; test: SPR experiment 2, IgG from HEK293 supernatant captured; remark: listed apart in the source

T4 sequence (A0A7N9I9V4 entry or part of it): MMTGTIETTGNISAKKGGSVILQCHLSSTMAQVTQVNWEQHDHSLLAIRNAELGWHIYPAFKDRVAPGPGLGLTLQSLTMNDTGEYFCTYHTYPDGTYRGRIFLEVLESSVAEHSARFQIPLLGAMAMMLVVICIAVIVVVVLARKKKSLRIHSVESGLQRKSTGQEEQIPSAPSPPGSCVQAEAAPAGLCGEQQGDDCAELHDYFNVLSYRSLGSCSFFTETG
T5 sequence (A0A7N9I9V4 entry or part of it): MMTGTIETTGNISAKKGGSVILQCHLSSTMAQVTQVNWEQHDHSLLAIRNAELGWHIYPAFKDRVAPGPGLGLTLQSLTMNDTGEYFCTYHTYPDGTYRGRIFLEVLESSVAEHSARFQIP

Bottom (RLU) [1]: 49800 RLU
EC50 [1]: 9.03 nM
Top (RLU) [1]: 129000 RLU
EC50 [2]: 0.745 nM
Kd [3]: 0.71 nM
koff [3]: 0.00022 s⁻¹
kon [3]: 300000 M⁻¹ s⁻¹
EC50 [4]: 4.98 nM
Kd [5]: 0.27 nM
koff [5]: 9.6e-05 s⁻¹
kon [5]: 350000 M⁻¹ s⁻¹
Kd [6]: 110 nM
koff [6]: 0.0074 s⁻¹
kon [6]: 69000 M⁻¹ s⁻¹
IC50 [7]: 0.975 nM
B3: huTIGIT-6-2 (antibody, human IgG1, kappa, V domains shown)
VH: QVQLVQSGAEVKKPGASVKVSCKASGYTITENTMHWVRQAPGQRLEWIGGINPNNAGTSYSQKFQGRATLTVDTSASTAYMELSSLRSEDTAVYYCTRSSYYRYDLDYWGQGTTVTVSS
VL: DIQMTQSPSSLSASVGDRVTITCQASQDIKTALAWYQQKPGKAPKLLIYSASYRYTGVPSRFSGSGSGTDFTFTISSLQPEDIATYYCHQHYTTPWTFGGGTKLEIKR
notes: Humanized IgG; also called 6VH6.M5 + 6VL1.M1

Kd [8]: 0.63 nM
koff [8]: 0.00026 s⁻¹
kon [8]: 410000 M⁻¹ s⁻¹
B8: humanized TIGIT-6 antibody 6VH6.M1 + 6VL1 (antibody, V domains shown)
VH: B3 VH with I29F, T33A, A56G, S61N, K63Q, Q65K
VL: DIQMTQSPSSLSASVGDRVTITCKASQDVKTALAWYQQKPGKAPKLLIYSASYRYTGVPSRFSGSGSGTDFTFTISSLQPEDIATYYCHQHYTTPWTFGGGTKLEIK
notes: Full-length IgG, tested as HEK293 supernatant

Kd [8]: 0.35 nM
koff [8]: 0.00012 s⁻¹
kon [8]: 350000 M⁻¹ s⁻¹
B9: humanized TIGIT-6 antibody 6VH6.M3 + 6VL1 (antibody, V domains shown)
VH: B3 VH with A56G
VL: B8 VL
notes: as for B8

Bottom (RLU) [1]: 53900 RLU
EC50 [1]: 2.05 nM
Top (RLU) [1]: 144000 RLU
EC50 [2]: 0.294 nM
EC50 [4]: 0.473 nM
Kd [5]: 0.16 nM
koff [5]: 0.00019 s⁻¹
kon [5]: 1.1e+06 M⁻¹ s⁻¹
Kd [6]: 0.047 nM
koff [6]: 3.7e-05 s⁻¹
kon [6]: 790000 M⁻¹ s⁻¹
IC50 [7]: 0.22 nM
B10: huTIGIT-19-1 (antibody, human IgG1, kappa, V domains shown)
VH: QVQLVQSGAEVKKPGASVKVSCKASGYTFTRYSMYWVRQAPGQGLEWIAFIDAYSGGSTYNQRFRGKATLTVDTSISTAYMELSRLRSDDTAVYYCARGGDYGWYLGVWGQGTLVTVSS
VL: DIQMTQSPSSLSASVGDRVTITCRPSENIYTYLSWYQQKPGKAPKLLIYNAKSLPSGVPSRFSGSGSGTDFTLTISSLQPEDFATYYCQHHYGNPLTFGQGTKVEIKR
notes: Humanized IgG; also called 19VH4.M9 + 19VL1.M4

Kd [9]: 0.2 nM
koff [9]: 0.00021 s⁻¹
kon [9]: 1e+06 M⁻¹ s⁻¹
B11: humanized TIGIT-19 antibody 19VH4.M6 + 19VL1 (antibody, V domains shown)
VH: B10 VH with A53P
VL: DIQMTQSPSSLSASVGDRVTITCRPSENIYTYLSWYQQKPGKAPKLLIYNAKTLPEGVPSRFSGSGSGTDFTLTISSLQPEDFATYYCQHHYGNPLTFGQGTKVEIK
notes: as for B8

Continued, binder first:

B1: huTIGIT-6-1 (antibody, human IgG1, kappa, V domains shown)
VH: B3 VH with N55Q, A56G
VL: B3 VL
notes: Humanized IgG; also called 6VH6.M4 + 6VL1.M1
Bottom (RLU) [1]: 51200 RLU
EC50 [1]: 9.1 nM
Top (RLU) [1]: 131000 RLU
EC50 [2]: 1.16 nM
Kd [3]: 0.34 nM
koff [3]: 9.8e-05 s⁻¹
kon [3]: 280000 M⁻¹ s⁻¹
EC50 [4]: 4.69 nM
Kd [5]: 0.21 nM
koff [5]: 5.6e-05 s⁻¹
kon [5]: 260000 M⁻¹ s⁻¹
Kd [6]: 75 nM
koff [6]: 0.0044 s⁻¹
kon [6]: 59000 M⁻¹ s⁻¹
IC50 [7]: 1.04 nM

B2: humanized TIGIT-6 antibody 6VH6 + 6VL1 (antibody, V domains shown)
VH: B3 VH with A56G, S61N, K63Q, Q65K
VL: B8 VL
notes: as for B8
Kd [8]: 0.3 nM
koff [8]: 0.00014 s⁻¹
kon [8]: 470000 M⁻¹ s⁻¹

B4: humanized TIGIT-6 antibody 6VH6.M4 + 6VL1 (antibody, V domains shown)
VH: B3 VH with N55Q, A56G
VL: B8 VL
notes: as for B8
Kd [8]: 0.65 nM
koff [8]: 0.00015 s⁻¹
kon [8]: 230000 M⁻¹ s⁻¹

B5: humanized TIGIT-6 antibody 6VH5 + 6VL1 (antibody, V domains shown)
VH: B3 VH with A56G, S61N, K63Q, Q65K, V72R
VL: B8 VL
notes: as for B8
Kd [8]: 0.35 nM
koff [8]: 0.00011 s⁻¹
kon [8]: 310000 M⁻¹ s⁻¹

B6: humanized TIGIT-6 antibody 6VH6.M3 + 6VL1.M1 (antibody, V domains shown)
VH: B3 VH with A56G
VL: B8 VL with K24Q, V29I
notes: as for B8
Kd [3]: 0.5 nM
koff [3]: 0.00016 s⁻¹
kon [3]: 320000 M⁻¹ s⁻¹

B7: humanized TIGIT-6 antibody 6VH6 + 6VL1.M1 (antibody, V domains shown)
VH: B3 VH with A56G, S61N, K63Q, Q65K
VL: B8 VL with K24Q, V29I
notes: as for B8
Kd [8]: 0.24 nM
koff [8]: 0.00013 s⁻¹
kon [8]: 530000 M⁻¹ s⁻¹
